Test results from article PMC8307315.

Experiments:
Assay in all cases: SPR; Biacore 2000, CM4 chip; PSA amine-coupled, antibody or conjugate bound to it; 10 min into the dissociation phase 40 nM FcRn in 10 mM maleic acid (pH 6.0) flown over for 3 min; number of FcRn bound per antibody from the RUs at the end of the FcRn injection
[1] = target: hu5A10-DOTA, 12:1 chelator-to-antibody molar ratio
[2] = target: hu5A10-DOTA, 3:1 chelator-to-antibody molar ratio
[3] = target: hu5A10-DOTA, 6:1 chelator-to-antibody molar ratio
[4] = target: hu5A10-DTPA, 12:1 chelator-to-antibody molar ratio
[5] = target: hu5A10-DTPA, 3:1 chelator-to-antibody molar ratio
[6] = target: hu5A10-DTPA, 6:1 chelator-to-antibody molar ratio
[7] = target: humanized 5A10 (hu5A10), unconjugated

FcRn bound per antibody (FcRn per antibody) [1]: 0.1
FcRn bound per antibody (FcRn per antibody) [2]: 0.8
FcRn bound per antibody (FcRn per antibody) [3]: 0.5
FcRn bound per antibody (FcRn per antibody) [4]: 1.7
FcRn bound per antibody (FcRn per antibody) [5]: 1.9
FcRn bound per antibody (FcRn per antibody) [6]: 1.9
FcRn bound per antibody (FcRn per antibody) [7]: 1.8
Substance: neonatal fc-receptor (FcRn) (from UniProt P55899 24-297)
